From patent US20240343803A1 (SHANDONG SIMCERE BIOPHARMACEUTICAL, published 2024)

What was measured:
[1] = biological target: T1, human PVRIG-his (AcroBiosystems, Cat NO. PVG-H52H4) (human, UniProt Q6DKI7 41-171, limits assumed); assay: competition ELISA, PVRIG-His coated, competitor human PVRL2-mFc; set-up: AUC: unit not given here
T1 construct: also called human PVRIG protein
T1 sequence (looked up): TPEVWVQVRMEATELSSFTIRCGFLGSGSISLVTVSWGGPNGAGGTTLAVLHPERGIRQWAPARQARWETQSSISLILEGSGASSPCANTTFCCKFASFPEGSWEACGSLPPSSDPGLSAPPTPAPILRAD
Description: The ELISA plate was pre-coated with 100 μL/well of 0.5 μg/mL human PVRIG-his protein (AcroBiosystems, Cat NO. PVG-H52H4). The tested anti-PVRIG antibodies were diluted from the highest concentration of 16 nM (two-fold concentration). The diluted antibodies were mixed with 18 ng/ml human PVRL2-mFc (AcroBiosystems, Cat NO. CD2-H5257) in equal volume, added into the plate (100 μL/well), and incubated with shaking at room temperature for 2.0 hours. […] A HRP substrate, TMB (Thermo, Cat NO. 34029) was added into wells after washing the plate again for color development. After adding a termination solution to terminate the reaction, the absorbance value was read by a microplate reader (MD i3×). An inhibiting curve was drawn with concentration of antibodies as the abscissa and the corresponding OD value as the ordinate. The IC50 value was calculated by using a Four Parameter Logistic Fit (GraphPadPrism9). The smaller the IC50 value, the stronger the ability of the antibodies inhibits the binding between PVRIG and PVRL2. The positive and negative controls are the same as in Example 8.
The methods refer to Example 11. The inhibiting activity of the humanized antibodies was normalized to the corresponding parental antibodies. If the percentage value is higher than 100%, the inhibiting effect of humanized antibodies is better than that of parental antibodies.

[2] = biological target: T2, cynomolgus monkey PVRIG (Novoprotein, Cat NO. C09B) (cynomolgus monkey, UniProt A0A2K5WVV8 41-171); assay: ELISA, antigen coated
T2 construct: also called cynomolgus monkey PVRIG protein
T2 sequence: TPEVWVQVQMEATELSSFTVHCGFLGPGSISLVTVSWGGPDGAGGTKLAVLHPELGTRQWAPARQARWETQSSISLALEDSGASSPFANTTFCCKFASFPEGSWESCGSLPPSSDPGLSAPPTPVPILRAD
Description: (§1) The ELISA plate was pre-coated with 100 μL/well of 0.5 μg/mL human PVRIG-his (AcroBiosystems, Cat NO. PVG-H52H4) or cynomolgus monkey PVRIG (Novoprotein, Cat NO. C09B). The tested anti-PVRIG humanized antibodies were serially diluted (initial concentration 3 nM, 3-fold serial dilution), added into the plate (100 μL/well) and incubated with shaking at room temperature for 1.5 hours. […] A HRP substrate, TMB (Thermo, Cat NO. 34029) was added into wells after washing the plate again for color development. After adding a termination solution to terminate the reaction, the absorbance value was read by a microplate reader (MD i3×). An antibody binding curve was drawn with concentration of antibodies as the abscissa and the corresponding OD value as the ordinate. The EC50 value was calculated by using a Four Parameter Logistic Fit (GraphPadPrism9). The smaller the EC50 value, the stronger the ability of the antibodies binds to human or cynomolgus monkey PVRIG. The binding effect of the humanized antibodies was normalized to the corresponding parental antibodies. If the percentage value is higher than 100%, the binding effect of humanized antibodies is better than that of parental antibody.

[3] = biological target: T1, human PVRIG-his (AcroBiosystems, Cat …); assay: ELISA, antigen coated
Description: as §1

B1: PVRIG-A50-H1 (Fc fusion)
chain: EVQLVESGGGLVQPGGSLRLSCAASGFTFSYYDMSWVRQAPGKGLEWVSTINSNGGRTSYVDSVKGRFTISRDNSKNTLYLQMNSLRAEDTAVYYCVEGDPHNFGLENLSLRDFGSWGQGTMVTVSS
notes: humanized variant of PVRIG-A50; also called A50.VH1; not shown: constant part not restated for the humanized forms; parents are VHH-hinge-CH2-CH3 of human IgG1; detected by anti-human
B1 was tested, and the “% relative activity (AUC) parental antibody/test antibody” value [1] was 82.6%, the “% relative activity (IC50) parental antibody/test antibody” value [1] was 77.5% and the AUC [1] was 2.42. The IC50 [1] was 1 nM, the “% relative activity parental antibody/tested antibody” value [2] was 95.1% and the EC50 [2] was 0.13 nM. For the same binder, the “% relative activity parental antibody/tested antibody” value [3] was 105% and the EC50 [3] was 0.0871 nM.

B2: PVRIG-A50-H1d (Fc fusion)
chain: EVQLVESGGGLVQPGGSLRLSCAASGFTFSYYDMSWVRQAPGKGLEWVSTINSNGGRTSYVDSVKGRFTISRDNSKNTLYLQMNSLRAEDTAVYYCVEGDPHNFGLESLSLRDFGSWGQGTMVTVSS
notes: humanized variant of PVRIG-A50; also called A50.VH1d; not shown: constant part not restated for the humanized forms; parents are VHH-hinge-CH2-CH3 of human IgG1; detected by anti-human
In the case of B2, the “% relative activity (AUC) parental antibody/test antibody” value [1] is reported as 83.2%, the “% relative activity (IC50) parental antibody/test antibody” value [1] is reported as 75% and the AUC [1] is reported as 2.4. For the same binder, the IC50 [1] was 1.03 nM, the “% relative activity parental antibody/tested antibody” value [2] was 111% and the EC50 [2] was 0.111 nM. For the same binder, the “% relative activity parental antibody/tested antibody” value [3] was 118% and the EC50 [3] was 0.0774 nM.

B3: PVRIG-A118-H7 (Fc fusion)
chain: EVQLVESGGGLVQPGGSLRLSCAASETYFDLYVMGWYRQAPGKDRELVATITYTGSIKYVDSVKGRFTISRGDAKNSLYLQMNSLRAEDTAVYFCNADPSGLGRKVYWGQGTMVTVSS
notes: humanized variant of PVRIG-A118; also called A118.VH7; not shown: constant part not restated for the humanized forms; parents are VHH-hinge-CH2-CH3 of human IgG1; detected by anti-human
In the case of B3, the “% relative activity (AUC) parental antibody/test antibody” value [1] is reported as 114%, the “% relative activity (IC50) parental antibody/test antibody” value [1] is reported as 129% and the AUC [1] is reported as 1.38. For the same binder, the IC50 [1] was 0.43 nM, the “% relative activity parental antibody/tested antibody” value [2] was 33.1% and the EC50 [2] was 0.0817 nM. For the same binder, the “% relative activity parental antibody/tested antibody” value [3] was 99.9% and the EC50 [3] was 0.0501 nM.

B4: PVRIG-A118-H3 (Fc fusion)
chain: EVQLVESGGGLVQPGGSLRLSCAASETYFDLYVMGWYRQAPGKDRELVATITYTGSIKYVDSVKGRFTISRGDAKNSLYLQMNSLRAEDTAVYYCNADPSGLGRKVYWGQGTMVTVSS
notes: humanized variant of PVRIG-A118; also called A118.VH3; not shown: constant part not restated for the humanized forms; parents are VHH-hinge-CH2-CH3 of human IgG1; detected by anti-human
For B4, the “% relative activity (AUC) parental antibody/test antibody” value [1] was 106%, the “% relative activity (IC50) parental antibody/test antibody” value [1] was 144% and the AUC [1] was 1.49. For the same binder, the IC50 [1] was 0.386 nM, the “% relative activity parental antibody/tested antibody” value [2] was 34% and the EC50 [2] was 0.0794 nM. The “% relative activity parental antibody/tested antibody” value [3] was 100% and the EC50 [3] was 0.05 nM.

B5: PVRIG-A118-H1 (Fc fusion)
chain: EVQLVESGGGLVQPGGSLRLSCAASETYFDLYVMGWYRQAPGKDRELVATITYTGSIYYVDSVKGRFTISRDNAKNSLYLQMNSLRAEDTAVYYCNADPSGLGRKVYWGQGTMVTVSS
notes: humanized variant of PVRIG-A118; also called A118.VH1; not shown: constant part not restated for the humanized forms; parents are VHH-hinge-CH2-CH3 of human IgG1; detected by anti-human
For B5, the “% relative activity (AUC) parental antibody/test antibody” value [1] was 121%, the “% relative activity (IC50) parental antibody/test antibody” value [1] was 157% and the AUC [1] was 1.31. For the same binder, the IC50 [1] was 0.355 nM, the “% relative activity parental antibody/tested antibody” value [2] was 4.62% and the EC50 [2] was 0.585 nM. The “% relative activity parental antibody/tested antibody” value [3] was 110% and the EC50 [3] was 0.0456 nM.

B6: PVRIG-A118-H2 (Fc fusion)
chain: EVQLVESGGGLVQPGGSLRLSCAASETYFDLYVMGWYRQAPGKDRELVATITYTGSIKYVDSVKGRFTISRDNAKNSLYLQMNSLRAEDTAVYYCNADPSGLGRKVYWGQGTMVTVSS
notes: humanized variant of PVRIG-A118; also called A118.VH2; not shown: constant part not restated for the humanized forms; parents are VHH-hinge-CH2-CH3 of human IgG1; detected by anti-human
In the case of B6, the “% relative activity (AUC) parental antibody/test antibody” value [1] is reported as 117%, the “% relative activity (IC50) parental antibody/test antibody” value [1] is reported as 156% and the AUC [1] is reported as 1.35. The IC50 [1] was 0.357 nM, the “% relative activity parental antibody/tested antibody” value [2] was 4.55% and the EC50 [2] was 0.594 nM. For the same binder, the “% relative activity parental antibody/tested antibody” value [3] was 102% and the EC50 [3] was 0.0491 nM.
